Assay results reported in the supplement of paper PMC10567573.

B1: ZNF511 (parent)
chain: EPLPVERDPAAGAAPFRFVARPVR
B2: KRT71 (parent)
chain: FGSRSLYSLGGVRSLNVASGSGKS

Variants of: B1
Assay: protein stability index of a GFP-peptide fusion (GPS, HEK-293T) (PSI 1-6); higher = more stable
Settings: c terminus: a fixed tail appended
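Further: lentivirally expressed fusions sorted by FACS into six bins by GFP to DsRed ratio, PSI derived from sequencing read proportions per bin multiplied by bin number.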

In order of falling protein stability index:
1. EPLPVERDPAAGAAPFRFVYRPVR [A20Y]  4.17
2. EPLPVERDPAAGAAPFRFVAPPVR [R21P]  3.54
3. EPLPVERDPAAGAAPFRFVLRPVR [A20L]  3.35
4. EPLPVERDPAAGAAPFRFVARFVR [P22F]  3.22
5. EPLPVERDPAAGAAPFRFVIRPVR [A20I]  3.21
6. EPLPVERDPAAGAAPFRFVARPCR [V23C]  3.19
7. EPLPVERDPAAGAAPFRFVARIVR [P22I]  3.15
8. EPLPVERDPAAGAAPFRFVARPIR [V23I]  3
9. EPLPVERDPAAGAAPFRFVAQPVR [R21Q]  2.96
10. EPLPVERDPAAGAAPFRFVARPQR [V23Q]  2.95
11. EPLPVERDPAAGAAPFRFVARPPR [V23P]  2.83
12. EPLPVERDPAAGAAPFRFVHRPVR [A20H]  2.81
13. EPLPVERDPAAGAAPFRFVARPRR [V23R]  2.8
14. EPLPVERDPAAGAAPFRFVARRVR [P22R]  2.8
15. EPLPVERDPAAGAAPFRFVTRPVR [A20T]  2.8
16. EPLPVERDPAAGAAPFRFVARDVR [P22D]  2.77
17. EPLPVERDPAAGAAPFRFVARPVP [R24P]  2.75
18. EPLPVERDPAAGAAPFRFVARPLR [V23L]  2.73
19. EPLPVERDPAAGAAPFRFVAKPVR [R21K]  2.71
20. EPLPVERDPAAGAAPFRFVARPHR [V23H]  2.69
21. EPLPVERDPAAGAAPFRFVARWVR [P22W]  2.66
22. EPLPVERDPAAGAAPFRFVARAVR [P22A]  2.64
23. EPLPVERDPAAGAAPFRFVAREVR [P22E]  2.62
24. EPLPVERDPAAGAAPFRFVNRPVR [A20N]  2.61
25. EPLPVERDPAAGAAPFRFVARVVR [P22V]  2.6
26. EPLPVERDPAAGAAPFRFVARPAR [V23A]  2.58
27. EPLPVERDPAAGAAPFRFVAIPVR [R21I]  2.58
28. EPLPVERDPAAGAAPFRFVATPVR [R21T]  2.57
29. EPLPVERDPAAGAAPFRFVWRPVR [A20W]  2.56
30. EPLPVERDPAAGAAPFRFVAFPVR [R21F]  2.51
31. EPLPVERDPAAGAAPFRFVARSVR [P22S]  2.51
32. EPLPVERDPAAGAAPFRFVMRPVR [A20M]  2.49
33. EPLPVERDPAAGAAPFRFVARPFR [V23F]  2.48
34. EPLPVERDPAAGAAPFRFVARMVR [P22M]  2.48
35. EPLPVERDPAAGAAPFRFVAAPVR [R21A]  2.46
36. EPLPVERDPAAGAAPFRFVVRPVR [A20V]  2.46
37. EPLPVERDPAAGAAPFRFVARPSR [V23S]  2.41
38. EPLPVERDPAAGAAPFRFVARPMR [V23M]  2.4
39. EPLPVERDPAAGAAPFRFVARPDR [V23D]  2.4
40. EPLPVERDPAAGAAPFRFVARPER [V23E]  2.4
41. EPLPVERDPAAGAAPFRFVQRPVR [A20Q]  2.4
42. EPLPVERDPAAGAAPFRFVARPVM [R24M]  2.37
43. EPLPVERDPAAGAAPFRFVAEPVR [R21E]  2.35
44. EPLPVERDPAAGAAPFRFVARLVR [P22L]  2.33
45. EPLPVERDPAAGAAPFRFVARPVI [R24I]  2.33
46. EPLPVERDPAAGAAPFRFVARYVR [P22Y]  2.32
47. EPLPVERDPAAGAAPFRFVARNVR [P22N]  2.31
48. EPLPVERDPAAGAAPFRFVARPWR [V23W]  2.28
49. EPLPVERDPAAGAAPFRFVADPVR [R21D]  2.27
50. EPLPVERDPAAGAAPFRFVARPGR [V23G]  2.25
51. EPLPVERDPAAGAAPFRFVARKVR [P22K]  2.22
52. EPLPVERDPAAGAAPFRFVARPVC [R24C]  2.22
53. EPLPVERDPAAGAAPFRFVARPVA [R24A]  2.2
54. EPLPVERDPAAGAAPFRFVPRPVR [A20P]  2.2
55. EPLPVERDPAAGAAPFRFVAHPVR [R21H]  2.18
56. EPLPVERDPAAGAAPFRFVARPVN [R24N]  2.18
57. EPLPVERDPAAGAAPFRFVARPTR [V23T]  2.17
58. EPLPVERDPAAGAAPFRFVARCVR [P22C]  2.17
59. EPLPVERDPAAGAAPFRFVARPVD [R24D]  2.17
60. EPLPVERDPAAGAAPFRFVARPVE [R24E]  2.15
61. EPLPVERDPAAGAAPFRFVASPVR [R21S]  2.14
62. EPLPVERDPAAGAAPFRFVARPNR [V23N]  2.13
63. EPLPVERDPAAGAAPFRFVARPYR [V23Y]  2.07
64. EPLPVERDPAAGAAPFRFVALPVR [R21L]  2.07
65. EPLPVERDPAAGAAPFRFVSRPVR [A20S]  2.05
66. EPLPVERDPAAGAAPFRFVARPVF [R24F]  2.04
67. EPLPVERDPAAGAAPFRFVARPVK [R24K]  2.04
68. EPLPVERDPAAGAAPFRFVAGPVR [R21G]  2.03
69. EPLPVERDPAAGAAPFRFVARQVR [P22Q]  2.02
70. EPLPVERDPAAGAAPFRFVARPVH [R24H]  2.02
71. EPLPVERDPAAGAAPFRFVARPKR [V23K]  2.01
72. EPLPVERDPAAGAAPFRFVARPVT [R24T]  1.97
73. EPLPVERDPAAGAAPFRFVKRPVR [A20K]  1.97
74. EPLPVERDPAAGAAPFRFVAMPVR [R21M]  1.95
75. EPLPVERDPAAGAAPFRFVARHVR [P22H]  1.93
76. EPLPVERDPAAGAAPFRFVARTVR [P22T]  1.92
77. EPLPVERDPAAGAAPFRFVARPVG [R24G]  1.89
78. EPLPVERDPAAGAAPFRFVARGVR [P22G]  1.85
79. EPLPVERDPAAGAAPFRFVARPVS [R24S]  1.81
80. EPLPVERDPAAGAAPFRFVAVPVR [R21V]  1.8
81. EPLPVERDPAAGAAPFRFVARPVY [R24Y]  1.78
82. EPLPVERDPAAGAAPFRFVARPVQ [R24Q]  1.77
83. EPLPVERDPAAGAAPFRFVAYPVR [R21Y]  1.76
84. EPLPVERDPAAGAAPFRFVACPVR [R21C]  1.7
85. EPLPVERDPAAGAAPFRFVARPVV [R24V]  1.7
86. EPLPVERDPAAGAAPFRFVRRPVR [A20R]  1.67
87. EPLPVERDPAAGAAPFRFVARPVW [R24W]  1.64
88. EPLPVERDPAAGAAPFRFVARPVL [R24L]  1.62
89. EPLPVERDPAAGAAPFRFVANPVR [R21N]  1.59
90. EPLPVERDPAAGAAPFRFVAWPVR [R21W]  1.41

Variants of: B2
Assay: as above
Settings: c terminus: a fixed tail appended

In order of falling protein stability index:
1. FGSRKLYSLGGVRSLNVASGSGKS [S5K]  2.65
2. FGSRNLYSLGGVRSLNVASGSGKS [S5N]  1.99
3. FGSRVLYSLGGVRSLNVASGSGKS [S5V]  1.9
4. FGSRTLYSLGGVRSLNVASGSGKS [S5T]  1.64
